The experiment has as its target T1, HLA-A*02:01 (human).
T1 construct: monomers captured on streptavidin plates; also called MHC class I
The experiment can be described thus: UV peptide exchange ELISA. Put shortly:
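Peptide-MHC complexes formed by UV-triggered exchange of a cleavable peptide for the test peptide, with stabilised complexes indicating binding. Exchange products diluted 100 fold onto streptavidin-coated wells, 1h at 37° C.; HRP anti-β2m (2 μg/ml), TMB, absorbance at 450 nm gives exchange yield.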
For orientation: An ELISA detects its analyte on a solid surface through an enzyme-linked reagent.

B1: YVLEFLEEI (peptide)
peptide: YVLEFLEEI
Molecule B1 came in with a peptide exchange yield of 20 to 50%.

B2: ALFTFSPLTV (peptide)
peptide: ALFTFSPLTV
B2 came in with a peptide exchange yield of 50 to 75%.

B3: VLPDPEVLEAV (peptide)
peptide: VLPDPEVLEAV
For B3, the peptide exchange yield was 50 to 75%.

B4: YLFPGIPEL (peptide)
peptide: YLFPGIPEL
Take B4: the peptide exchange yield lay in the range of 50 to 75%.

B5: SIFSAFLSV (peptide)
peptide: SIFSAFLSV
Consider B5, for which the peptide exchange yield is 50 to 75%.

B6: SLEPQIQPV (peptide)
peptide: SLEPQIQPV
On to B6, for which the peptide exchange yield was 20 to 50%.

B7: KMFEFVEPLL (peptide)
peptide: KMFEFVEPLL
B7 returned a peptide exchange yield of at least 75%.

B8: ALLQEGEVYSA (peptide)
peptide: ALLQEGEVYSA
In turn, B8 displayed a peptide exchange yield of 50 to 75%.

B9: QLLHVGVTV (peptide)
peptide: QLLHVGVTV
For B9, the peptide exchange yield fell in the range of 50 to 75%.

B10: TLMTSLPAL (peptide)
peptide: TLMTSLPAL
In the case of B10, the peptide exchange yield fell in the range of 50 to 75%.

B11: VMITKLVEV (peptide)
peptide: VMITKLVEV
B11: the peptide exchange yield lay within 50 to 75%.

B12: QLLDVVLTI (peptide)
peptide: QLLDVVLTI
In turn, B12 yielded a peptide exchange yield of 20 to 50%.

B13: GLFEDVTQPGILL (peptide)
peptide: GLFEDVTQPGILL
B13 gave a peptide exchange yield of at least 75%.

B14: RLYTGMHTV (peptide)
peptide: RLYTGMHTV
Molecule B14 gave a peptide exchange yield of 50 to 75%.

B15: ALWGGTQPLL (peptide)
peptide: ALWGGTQPLL
As to B15, the peptide exchange yield fell in the range of 20 to 50%.

B16: NLFQSVREV (peptide)
peptide: NLFQSVREV
In the case of B16, the peptide exchange yield was in the range of 20 to 50%.

B17: MTLGQIYYL (peptide)
peptide: MTLGQIYYL
With B17, the peptide exchange yield lay within 50 to 75%.

B18: YLLETSGNL (peptide)
peptide: YLLETSGNL
In the case of B18, the peptide exchange yield lay within 50 to 75%.

B19: SLAALVVHV (peptide)
peptide: SLAALVVHV
In turn, B19 showed a peptide exchange yield of 50 to 75%.

B20: VLDELDMEL (peptide)
peptide: VLDELDMEL
B20: the peptide exchange yield fell in the range of 20 to 50%.

B21: VLFDDELLMV (peptide)
peptide: VLFDDELLMV
In the case of B21, the peptide exchange yield lay within 50 to 75%.

B22: ELAERVPAI (peptide)
peptide: ELAERVPAI
Consider B22, for which the peptide exchange yield is 20 to 50%.

B23: GLINTGVLSV (peptide)
peptide: GLINTGVLSV
The molecule B23 showed a peptide exchange yield of 20 to 50%.

B24: LVYPLELYPA (peptide)
peptide: LVYPLELYPA
In the case of B24, the peptide exchange yield fell in the range of 50 to 75%.

B25: VLDRESPNV (peptide)
peptide: VLDRESPNV
As to B25, the peptide exchange yield was in the range of 50 to 75%.

B26: IISDLTIAL (peptide)
peptide: IISDLTIAL
With B26, the peptide exchange yield lay in the range of 50 to 75%.

B27: LLPPLESLATV (peptide)
peptide: LLPPLESLATV
In turn, B27 showed a peptide exchange yield of 20 to 50%.

B28: ALVNVQIPL (peptide)
peptide: ALVNVQIPL
In turn, B28 showed a peptide exchange yield of 50 to 75%.

B29: YLVAKLVEV (peptide)
peptide: YLVAKLVEV
In turn, B29 yielded a peptide exchange yield of 20 to 50%.

B30: SQYSGQLHEV (peptide)
peptide: SQYSGQLHEV
Molecule B30 showed a peptide exchange yield of 50 to 75%.

B31: FLVDTPLARA (peptide)
peptide: FLVDTPLARA
With B31, the peptide exchange yield was at least 75%.

B32: LLWGDLIWL (peptide)
peptide: LLWGDLIWL
Consider B32, for which the peptide exchange yield lay in the range of 50 to 75%.

B33: LLVSNLDFGV (peptide)
peptide: LLVSNLDFGV
B33 came in with a peptide exchange yield of 50 to 75%.

B34: SLQEQLHSV (peptide)
peptide: SLQEQLHSV
In turn, B34 gave a peptide exchange yield of 50 to 75%.

B35: SLLFSLFEA (peptide)
peptide: SLLFSLFEA
Molecule B35 gave a peptide exchange yield of 20 to 50%.

B36: VLLEIEDLQV (peptide)
peptide: VLLEIEDLQV
Turning to B36, the peptide exchange yield is at least 75%.

B37: FLVEDLVDSL (peptide)
peptide: FLVEDLVDSL
In turn, B37 came in with a peptide exchange yield of 50 to 75%.

B38: FLNEFFLNV (peptide)
peptide: FLNEFFLNV
The molecule B38 returned a peptide exchange yield of 50 to 75%.

B39: LLADVVPTT (peptide)
peptide: LLADVVPTT
Molecule B39 gave a peptide exchange yield of 50 to 75%.

B40: FLPPEHTIVYI (peptide)
peptide: FLPPEHTIVYI
The molecule B40 had a peptide exchange yield of 50 to 75%.

B41: YLVYILNEL (peptide)
peptide: YLVYILNEL
As for B41, the peptide exchange yield lay within 20 to 50%.

B42: YLQDVVEQA (peptide)
peptide: YLQDVVEQA
B42 had a peptide exchange yield of 50 to 75%.

B43: FLYDEIEAEV (peptide)
peptide: FLYDEIEAEV
B43 returned a peptide exchange yield of 50 to 75%.

B44: RVLEVGALQAV (peptide)
peptide: RVLEVGALQAV
B44 showed a peptide exchange yield of 20 to 50%.

B45: VLADIELAQA (peptide)
peptide: VLADIELAQA
For the molecule B45, the peptide exchange yield lay in the range of 50 to 75%.

B46: ILLERLWYV (peptide)
peptide: ILLERLWYV
For B46, the peptide exchange yield was 50 to 75%.

B47: ALYIGDGYVIHLA (peptide)
peptide: ALYIGDGYVIHLA
On to B47, for which the peptide exchange yield was in the range of 50 to 75%.

B48: IMEENPGIFAV (peptide)
peptide: IMEENPGIFAV
The molecule B48 gave a peptide exchange yield of 50 to 75%.

B49: ALGNTVPAV (peptide)
peptide: ALGNTVPAV
For the molecule B49, the peptide exchange yield fell in the range of 50 to 75%.

B50: ALPVSLPQI (peptide)
peptide: ALPVSLPQI
For the molecule B50, the peptide exchange yield lay within 50 to 75%.

B51: KITDTLIHL (peptide)
peptide: KITDTLIHL
The molecule B51 registered a peptide exchange yield of 50 to 75%.

B52: FIMPATVADATAV (peptide)
peptide: FIMPATVADATAV
For the molecule B52, the peptide exchange yield was 50 to 75%.

B53: LLLDEEGTFSL (peptide)
peptide: LLLDEEGTFSL
B53 showed a peptide exchange yield of 20 to 50%.

B54: FMVDNEAIYDI (peptide)
peptide: FMVDNEAIYDI
Turning to B54, the peptide exchange yield was at least 75%.

B55: GLLPGDRLVSV (peptide)
peptide: GLLPGDRLVSV
B55 had a peptide exchange yield of 50 to 75%.

B56: ILRESTEEL (peptide)
peptide: ILRESTEEL
Take B56: the peptide exchange yield was 50 to 75%.

B57: ALQDFLLSV (peptide)
peptide: ALQDFLLSV
B57 displayed a peptide exchange yield of 50 to 75%.

B58: ALLGQTFSL (peptide)
peptide: ALLGQTFSL
Turning to B58, the peptide exchange yield was 50 to 75%.

B59: GLFDGVPTTA (peptide)
peptide: GLFDGVPTTA
In turn, B59 came in with a peptide exchange yield of 50 to 75%.

B60: FMEGAIIYV (peptide)
peptide: FMEGAIIYV
In the case of B60, the peptide exchange yield was 50 to 75%.

B61: SIANFSEFYV (peptide)
peptide: SIANFSEFYV
Regarding B61, the peptide exchange yield is at least 75%.

B62: NLINEINGV (peptide)
peptide: NLINEINGV
For the molecule B62, the peptide exchange yield fell in the range of 50 to 75%.

B63: ALIAEGIALV (peptide)
peptide: ALIAEGIALV
As for B63, the peptide exchange yield was in the range of 50 to 75%.

B64: LLFGGTKTV (peptide)
peptide: LLFGGTKTV
The molecule B64 yielded a peptide exchange yield of 20 to 50%.

B65: AILPQLFMV (peptide)
peptide: AILPQLFMV
As to B65, the peptide exchange yield is at least 75%.

B66: RMIEYFIDV (peptide)
peptide: RMIEYFIDV
With B66, the peptide exchange yield fell in the range of 50 to 75%.

B67: ILLSQTTGV (peptide)
peptide: ILLSQTTGV
For B67, the peptide exchange yield is 50 to 75%.

The record behind these values is US20170037110A1 (IMMATICS BIOTECHNOLOGIES, published 2017).
